The text below walks through data of US8481333B2 (IDEXX Laboratories, Inc., priority 2011, dated 2013).

“Also recorded” adds a separate entry of the source.

Series [1] is classed as in vitro ADME, feline. How it is done:
For plasma extraction, 100 uL of plasma was precipitated by addition of 200 uL methanol in a 1.5 mL protein LoBind eppendorf tube. After vortexing for 10 seconds, the precipitate was pelleted by centrifugation at 13,000 rpm for 15 minutes at 10° C. using a benchtop centrifuge. The supernatant was transferred to a limited volume glass HPLC vial and analyzed by LC/MS as described in the following examples.
To characterize the fsNT-proBNP stable degradation products present after incubation in feline plasma, fsNT-proBNP was added to feline plasma at 1, 5, and 10 μg/mL and incubated at room temperature. At 0, 24, 48, 96, and 192 hours, 100 μL aliquots of the plasma were collected and combined with 200 μL of methanol to form a precipitate. After centrifugation, the supernatant was analyzed for stable peptides by LC/MS as described in Example 1.
The relative abundance of several fragments from the N-terminal, capture, and C-terminal regions were evaluated over time.

A short description of another series: feline plasma. As to conditions: room temperature, up to 192 hours.

Consider “LGPLQQGHSPAESWEAQEEPPARVLAPHDNVLR (Preferred Feline NT-proBNP C-Terminal Peptide Plasma Degradent) [SEQ ID NO: 9]”, for which, in series [1], the “prevalence of polypeptide fragments in plasma” value (shortened to “prevalence”) is “most prevalent”. Turning to “ASEASAIQELLDGLRDTVSEL (Preferred Feline NT-proBNP N-Terminal Peptide Plasma Degradent) [SEQ ID NO: 5]”, the “prevalence” value in series [1] is recorded as “most prevalent”.

Take “HPLGGPGPASEASAIQELLDGLRDTVSELQEAQMALGPLQQGHSPAESWEAQEEPPARVLAPHDNVLRALRRLGSSKM”: the fragment found entry in “feline plasma” is recorded as “ASEASAIQELLDGLRDTVSEL, major; also recorded: DGLRDTVSEL; also recorded: LDGLRDTVSELQEAQM; also recorded: LGPLQQGHSPAESWEAQEEPPAR; also recorded: LGPLQQGHSPAESWEAQEEPPARVLAPHDNVLR, major; also recorded: LQQGHSPAESWEAQEEPPARVLAPHDNVLR, major; also recorded: VLAPHDNVLR”.

Consider “LQQGHSPAESWEAQEEPPARVLAPHDNVLR (Preferred Feline NT-proBNP C-Terminal Peptide Plasma Degradent) [SEQ ID NO:10]”, for which, in series [1], the “prevalence” value was “most prevalent”.
